Data as given in PMC9482650, “Quantitative fragmentomics allow affinity mapping of interactomes” (Nature Communications, 2022).

Tests used:
Test in all cases: holdup assay
Parameters in all cases: key: below the threshold = too weak to quantify, mostly under pKd 3.1 to 4
Conditions in all cases: plain residues with an end cap or a label only (N-terminal biotin on a linker: ttds)
APBA3_1, O96018 = molecular target: T1, APBA3_1, O96018
T1 sequence (O96018 389-490, limits assumed, looked up): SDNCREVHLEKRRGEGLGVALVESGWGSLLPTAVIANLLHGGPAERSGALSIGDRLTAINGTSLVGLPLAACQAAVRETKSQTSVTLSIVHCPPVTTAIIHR

CARD11, Q9BXL7 = molecular target: T2, CARD11, Q9BXL7
T2 sequence (Q9BXL7 662-765, limits assumed, looked up): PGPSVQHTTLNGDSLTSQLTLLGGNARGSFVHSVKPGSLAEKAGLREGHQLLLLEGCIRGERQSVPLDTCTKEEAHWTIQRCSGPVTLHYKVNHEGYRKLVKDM

DLG2_2, Q15700 = molecular target: DLG2_2, Q15700
Chain of DLG2_2, Q15700 (Q15700 189-283): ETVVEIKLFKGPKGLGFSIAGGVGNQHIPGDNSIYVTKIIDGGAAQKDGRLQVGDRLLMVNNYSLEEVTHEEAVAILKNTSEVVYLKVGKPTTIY

DLG4_3, P78352 = molecular target: DLG4_3, P78352
Chain of DLG4_3, P78352 (P78352 306-403): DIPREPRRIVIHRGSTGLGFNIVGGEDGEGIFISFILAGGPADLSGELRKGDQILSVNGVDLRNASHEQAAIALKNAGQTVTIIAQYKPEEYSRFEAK

DVL3, Q92997 = molecular target: T3, DVL3, Q92997
T3 sequence (Q92997 244-331, limits assumed, looked up): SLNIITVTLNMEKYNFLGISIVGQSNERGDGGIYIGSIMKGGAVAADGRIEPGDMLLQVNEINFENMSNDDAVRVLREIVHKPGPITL

FRMPD3, Q5JV73 = molecular target: FRMPD3, Q5JV73
Chain of FRMPD3, Q5JV73 (Q5JV73 12-100): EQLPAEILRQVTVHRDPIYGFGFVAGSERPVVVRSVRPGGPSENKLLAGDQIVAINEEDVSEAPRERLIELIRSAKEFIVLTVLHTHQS

GOPC, Q9HD26 = molecular target: GOPC, Q9HD26
GORASP2, Q9H8Y8 = molecular target: GORASP2, Q9H8Y8
GRIP1_5, Q9Y3R0 = molecular target: T4, GRIP1_5, Q9Y3R0
T4 sequence (Q9Y3R0 568-668, limits assumed, looked up): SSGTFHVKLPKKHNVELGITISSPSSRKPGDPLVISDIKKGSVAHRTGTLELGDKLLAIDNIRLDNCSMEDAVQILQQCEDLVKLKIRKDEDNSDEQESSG

GRIP2_4, Q9C0E4 = molecular target: GRIP2_4, Q9C0E4
Chain of GRIP2_4, Q9C0E4 (Q9C0E4 446-548): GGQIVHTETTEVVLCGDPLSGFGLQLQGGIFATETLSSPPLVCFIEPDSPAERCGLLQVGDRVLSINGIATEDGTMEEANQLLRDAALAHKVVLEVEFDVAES

GRIP2_6, Q9C0E4 = molecular target: GRIP2_6, Q9C0E4
Chain of GRIP2_6, Q9C0E4 (Q9C0E4 648-740): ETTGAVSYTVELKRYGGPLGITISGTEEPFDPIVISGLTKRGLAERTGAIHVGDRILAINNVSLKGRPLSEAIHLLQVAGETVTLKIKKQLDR

HTRA1, Q92743 = molecular target: HTRA1, Q92743
Chain of HTRA1, Q92743 (Q92743 360-477): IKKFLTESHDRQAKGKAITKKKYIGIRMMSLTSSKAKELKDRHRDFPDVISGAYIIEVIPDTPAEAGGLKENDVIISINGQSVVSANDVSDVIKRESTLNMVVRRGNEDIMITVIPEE

HTRA2, O43464 = molecular target: HTRA2, O43464
Chain of HTRA2, O43464 (O43464 355-458): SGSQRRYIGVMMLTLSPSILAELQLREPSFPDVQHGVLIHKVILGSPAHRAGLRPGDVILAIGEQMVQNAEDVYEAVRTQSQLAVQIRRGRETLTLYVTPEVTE

HTRA3, P83110 = molecular target: T5, HTRA3, P83110
T5 sequence (P83110 354-453, limits assumed, looked up): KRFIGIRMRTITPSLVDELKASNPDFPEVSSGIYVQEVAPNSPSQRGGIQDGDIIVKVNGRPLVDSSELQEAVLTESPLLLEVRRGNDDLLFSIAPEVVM

Inadl_6, Q8NI35 = molecular target: Inadl_6, Q8NI35
Chain of Inadl_6, Q8NI35 (Q8NI35 1058-1167): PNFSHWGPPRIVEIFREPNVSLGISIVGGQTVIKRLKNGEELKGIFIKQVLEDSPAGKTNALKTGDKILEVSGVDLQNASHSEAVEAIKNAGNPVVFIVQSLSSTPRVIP

LAP2, Q96RT1 = molecular target: LAP2, Q96RT1
Chain of LAP2, Q96RT1 (Q96RT1 other isoform, or with tags, fused parts or gaps): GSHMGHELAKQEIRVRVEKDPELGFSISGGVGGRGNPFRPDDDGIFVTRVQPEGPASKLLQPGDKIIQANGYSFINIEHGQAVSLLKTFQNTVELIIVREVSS

LNX1_1, Q8TBB1 = molecular target: LNX1_1, Q8TBB1
Chain of LNX1_1, Q8TBB1 (Q8TBB1 261-371): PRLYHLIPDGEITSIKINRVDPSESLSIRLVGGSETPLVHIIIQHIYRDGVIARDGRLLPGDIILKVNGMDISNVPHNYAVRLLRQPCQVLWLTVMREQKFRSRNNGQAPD

LNX1_2, Q8TBB1 = molecular target: LNX1_2, Q8TBB1
Chain of LNX1_2, Q8TBB1 (Q8TBB1 371-470): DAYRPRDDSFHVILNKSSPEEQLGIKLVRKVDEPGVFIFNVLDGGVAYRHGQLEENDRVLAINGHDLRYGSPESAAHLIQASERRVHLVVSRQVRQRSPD

LNX2_3, Q8N448 = molecular target: T6, LNX2_3, Q8N448
T6 sequence (Q8N448 463-564, limits assumed, looked up): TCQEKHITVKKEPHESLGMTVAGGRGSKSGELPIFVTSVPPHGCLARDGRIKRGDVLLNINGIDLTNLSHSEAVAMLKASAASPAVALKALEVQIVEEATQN

LRRC7, Q96NW7 = molecular target: T7, LRRC7, Q96NW7
T7 sequence (Q96NW7 1440-1537, limits assumed, looked up): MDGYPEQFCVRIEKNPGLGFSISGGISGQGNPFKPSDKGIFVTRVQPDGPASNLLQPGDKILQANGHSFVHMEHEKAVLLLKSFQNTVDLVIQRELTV

MAGI3_2, Q5TCQ9 = molecular target: MAGI3_2, Q5TCQ9
Chain of MAGI3_2, Q5TCQ9 (Q5TCQ9 398-503): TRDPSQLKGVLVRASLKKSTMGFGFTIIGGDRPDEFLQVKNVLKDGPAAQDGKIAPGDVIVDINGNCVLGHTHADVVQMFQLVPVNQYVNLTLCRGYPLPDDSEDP

MPP7, Q5T2T1 = molecular target: T8, MPP7, Q5T2T1
T8 sequence (Q5T2T1 134-230, limits assumed, looked up): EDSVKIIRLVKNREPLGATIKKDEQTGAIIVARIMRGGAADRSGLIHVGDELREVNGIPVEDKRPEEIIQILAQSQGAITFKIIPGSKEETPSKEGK

NHERF4_1, Q86UT5-2 = molecular target: NHERF4_1, Q86UT5-2
Chain of NHERF4_1, Q86UT5-2 (Q86UT5 other isoform, or with tags, fused parts or gaps): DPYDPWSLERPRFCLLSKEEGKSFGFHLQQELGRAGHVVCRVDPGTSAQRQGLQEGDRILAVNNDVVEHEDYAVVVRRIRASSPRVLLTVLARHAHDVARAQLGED

PDZRN4_1, Q6ZMN7 = molecular target: PDZRN4_1, Q6ZMN7
Chain of PDZRN4_1, Q6ZMN7 (Q6ZMN7 213-318): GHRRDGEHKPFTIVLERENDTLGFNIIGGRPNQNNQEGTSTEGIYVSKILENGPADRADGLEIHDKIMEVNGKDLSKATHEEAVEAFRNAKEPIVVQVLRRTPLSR

SNTB1, Q13884 = molecular target: T9, SNTB1, Q13884
T9 sequence (Q13884 107-205, limits assumed, looked up): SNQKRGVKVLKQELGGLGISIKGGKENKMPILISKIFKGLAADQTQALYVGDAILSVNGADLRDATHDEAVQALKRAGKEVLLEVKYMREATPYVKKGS

TJP1_3, Q07157 = molecular target: TJP1_3, Q07157
Chain of TJP1_3, Q07157 (Q07157 416-512): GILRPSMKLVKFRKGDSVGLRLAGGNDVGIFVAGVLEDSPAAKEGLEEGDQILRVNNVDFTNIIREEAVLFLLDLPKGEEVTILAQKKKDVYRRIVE

TJP3_3, O95049 = molecular target: T10, TJP3_3, O95049
T10 sequence (O95049 375-456, limits assumed, looked up): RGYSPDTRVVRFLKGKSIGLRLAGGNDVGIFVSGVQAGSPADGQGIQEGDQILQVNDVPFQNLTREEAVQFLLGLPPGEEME

**Q.** Which results are given for KKYVDAETSL [SLC4A7, Q9Y6M7]?
**A.** pKd (APBA3_1, O96018): below the threshold; pKd (CARD11, Q9BXL7): below the threshold; pKd (DLG2_2, Q15700): below the threshold; pKd (DLG4_3, P78352): 3.59; pKd (DVL3, Q92997): below the threshold; pKd (FRMPD3, Q5JV73): 3.58; pKd (GOPC, Q9HD26): 4.09; pKd (GORASP2, Q9H8Y8): below the threshold; pKd (GRIP1_5, Q9Y3R0): 3.53; pKd (GRIP2_4, Q9C0E4): below the threshold; pKd (GRIP2_6, Q9C0E4): below the threshold; pKd (HTRA1, Q92743): 3.71; pKd (HTRA2, O43464): below the threshold; pKd (HTRA3, P83110): below the threshold; pKd (Inadl_6, Q8NI35): 3.71; pKd (LAP2, Q96RT1): below the threshold; pKd (LNX1_1, Q8TBB1): below the threshold; pKd (LNX1_2, Q8TBB1): below the threshold; pKd (LNX2_3, Q8N448): below the threshold; pKd (LRRC7, Q96NW7): below the threshold; pKd (MAGI3_2, Q5TCQ9): below the threshold; pKd (MPP7, Q5T2T1): below the threshold; pKd (NHERF4_1, Q86UT5-2): 3.49; pKd (PDZRN4_1, Q6ZMN7): 4.8; pKd (SNTB1, Q13884): 4.46; pKd (TJP1_3, Q07157): below the threshold; pKd (TJP3_3, O95049): below the threshold

**Q.** With RHTTSTETAV [HPV30-E6, P36809] as the binder, how does the pKd (APBA3_1, O96018) read?
**A.** below the threshold

**Q.** What about the pKd (CARD11, Q9BXL7) of the same binder?
**A.** below the threshold

**Q.** What about the pKd (DLG2_2, Q15700) of the same binder?
**A.** 5.19

**Q.** What about the pKd (DLG4_3, P78352) of the same binder?
**A.** 4.35

**Q.** What about the pKd (DVL3, Q92997) of the same binder?
**A.** below the threshold

**Q.** And the pKd (FRMPD3, Q5JV73)?
**A.** 3.76

**Q.** And the pKd (GOPC, Q9HD26)?
**A.** 4.14

**Q.** And the pKd (GORASP2, Q9H8Y8)?
**A.** below the threshold

**Q.** What about the pKd (GRIP1_5, Q9Y3R0) of the same binder?
**A.** below the threshold

**Q.** What about the pKd (GRIP2_4, Q9C0E4) of the same binder?
**A.** 3.66

**Q.** And the pKd (GRIP2_6, Q9C0E4)?
**A.** 3.77

**Q.** And the pKd (HTRA1, Q92743)?
**A.** 3.73

**Q.** What about the pKd (HTRA2, O43464) of the same binder?
**A.** below the threshold

**Q.** What about the pKd (HTRA3, P83110) of the same binder?
**A.** below the threshold

**Q.** What about the pKd (Inadl_6, Q8NI35) of the same binder?
**A.** below the threshold

**Q.** What about the pKd (LAP2, Q96RT1) of the same binder?
**A.** 4.46

**Q.** And the pKd (LNX1_1, Q8TBB1)?
**A.** below the threshold

**Q.** And the pKd (LNX1_2, Q8TBB1)?
**A.** 3.67

**Q.** What about the pKd (LNX2_3, Q8N448) of the same binder?
**A.** below the threshold

**Q.** And the pKd (LRRC7, Q96NW7)?
**A.** below the threshold

**Q.** What about the pKd (MAGI3_2, Q5TCQ9) of the same binder?
**A.** 5.36

**Q.** And the pKd (MPP7, Q5T2T1)?
**A.** below the threshold

**Q.** What about the pKd (NHERF4_1, Q86UT5-2) of the same binder?
**A.** below the threshold

**Q.** And the pKd (PDZRN4_1, Q6ZMN7)?
**A.** 4.53

**Q.** And the pKd (SNTB1, Q13884)?
**A.** 5.1

**Q.** And the pKd (TJP1_3, Q07157)?
**A.** below the threshold

**Q.** And the pKd (TJP3_3, O95049)?
**A.** below the threshold

**Q.** Which pKd (APBA3_1, O96018) does the source give for SSLQSLETSV [ATP2B4, P23634] here?
**A.** below the threshold

**Q.** What about the pKd (CARD11, Q9BXL7) of the same binder?
**A.** below the threshold

**Q.** And the pKd (DLG2_2, Q15700)?
**A.** 5.08

**Q.** What about the pKd (DLG4_3, P78352) of the same binder?
**A.** 4.65

**Q.** And the pKd (DVL3, Q92997)?
**A.** 3.6

**Q.** And the pKd (FRMPD3, Q5JV73)?
**A.** below the threshold

**Q.** And the pKd (GOPC, Q9HD26)?
**A.** below the threshold

**Q.** What about the pKd (GORASP2, Q9H8Y8) of the same binder?
**A.** 3.98

**Q.** And the pKd (GRIP1_5, Q9Y3R0)?
**A.** below the threshold

**Q.** What about the pKd (GRIP2_4, Q9C0E4) of the same binder?
**A.** below the threshold

**Q.** And the pKd (GRIP2_6, Q9C0E4)?
**A.** below the threshold

**Q.** And the pKd (HTRA1, Q92743)?
**A.** 3.9

**Q.** What about the pKd (HTRA2, O43464) of the same binder?
**A.** below the threshold

**Q.** And the pKd (HTRA3, P83110)?
**A.** 3.51

**Q.** What about the pKd (Inadl_6, Q8NI35) of the same binder?
**A.** below the threshold

**Q.** What about the pKd (LAP2, Q96RT1) of the same binder?
**A.** 4.66

**Q.** What about the pKd (LNX1_1, Q8TBB1) of the same binder?
**A.** 3.71

**Q.** And the pKd (LNX1_2, Q8TBB1)?
**A.** 3.7

**Q.** What about the pKd (LNX2_3, Q8N448) of the same binder?
**A.** below the threshold

**Q.** And the pKd (LRRC7, Q96NW7)?
**A.** below the threshold

**Q.** And the pKd (MAGI3_2, Q5TCQ9)?
**A.** 4.79

**Q.** And the pKd (MPP7, Q5T2T1)?
**A.** below the threshold

**Q.** What about the pKd (NHERF4_1, Q86UT5-2) of the same binder?
**A.** below the threshold

**Q.** What about the pKd (PDZRN4_1, Q6ZMN7) of the same binder?
**A.** 4.79

**Q.** And the pKd (SNTB1, Q13884)?
**A.** 5.59

**Q.** What about the pKd (TJP1_3, Q07157) of the same binder?
**A.** below the threshold

**Q.** What about the pKd (TJP3_3, O95049) of the same binder?
**A.** 3.71
